Here are results for 1 molecule from PMC4010391, “Mammalian TBX1 Preferentially Binds and Regulates Downstream Targets Via a Tandem T-site Repeat”.

The target of this data set is T1, GST-TBX1 T-box (Mus musculus, UniProt P70323 90-303).
T1 sequence: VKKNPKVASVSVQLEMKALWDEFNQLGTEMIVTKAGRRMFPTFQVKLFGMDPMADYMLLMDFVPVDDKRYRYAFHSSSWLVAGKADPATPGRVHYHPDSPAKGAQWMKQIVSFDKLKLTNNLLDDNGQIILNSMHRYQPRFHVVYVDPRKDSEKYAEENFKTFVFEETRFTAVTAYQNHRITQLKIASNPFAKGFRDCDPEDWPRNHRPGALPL
Briefly: EMSA; 6 h exposure; EMSA, 12.5 ul, GST-TBX1 5-25 ug, HEPES/MgCl2/KCl/DTT/EDTA/glycerol buffer (stock concentrations only, pH not given), 1 ug/ul poly(dI-dC), Ficoll, room temperature, 10 min + 10 min, 5% acrylamide gel. To be noted: protein: recombinant; tags: N-terminal GST (pGEX4t3); chain copies: 2; label: 5'-32P. (A gel shift assay detects complexes by their altered migration in electrophoresis.)

B1: Brachyury palindrome probe (Fig S1) (dsDNA)
DNA 1: CTAGATTTCACACCTAGGTGTGAAATCTAG
DNA 2: B1 DNA 1
B1: the binding result is given as “binds”.
